This assay deals with PTH receptors on UMR 106 cells (rat (endogenous in UMR 106)) (UniProt P25961).
UniProt P25961, sequence (P25961 27-591): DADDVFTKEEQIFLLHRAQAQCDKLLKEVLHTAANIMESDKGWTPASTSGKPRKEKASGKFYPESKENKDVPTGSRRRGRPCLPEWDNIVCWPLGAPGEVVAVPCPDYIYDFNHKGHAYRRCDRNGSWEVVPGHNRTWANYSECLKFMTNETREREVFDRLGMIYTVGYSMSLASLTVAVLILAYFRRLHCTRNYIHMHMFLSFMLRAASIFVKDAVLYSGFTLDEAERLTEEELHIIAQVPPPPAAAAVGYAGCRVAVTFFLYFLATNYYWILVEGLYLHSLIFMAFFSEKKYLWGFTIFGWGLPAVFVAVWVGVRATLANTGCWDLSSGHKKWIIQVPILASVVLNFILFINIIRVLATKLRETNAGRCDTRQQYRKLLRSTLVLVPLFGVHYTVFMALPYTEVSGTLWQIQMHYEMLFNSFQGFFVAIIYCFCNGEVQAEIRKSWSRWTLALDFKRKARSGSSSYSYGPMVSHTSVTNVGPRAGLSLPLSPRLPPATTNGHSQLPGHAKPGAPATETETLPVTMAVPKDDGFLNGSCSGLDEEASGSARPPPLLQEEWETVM

Substance “recombinant human parathyroid hormone (rhPTH 1-34) (peptide)” returned a potency in the cAMP bioassay on UMR 106 cells, against the standard of 99.7%.

The record behind these values is paper PMC3732869.
